The values that follow come from patent US9180187B2, “Medicament for treating and/or preventing cancer” (TORAY INDUSTRIES, INC., priority 2010, dated 2015).

In data set [1] the test system is human breast cancer cell line MDA-MB-157. The data set is described as follows: ADCC activity, chromium-51 release. The conditions noted are these: 1 μg antibody, mouse lymphocytes 2×10^5 cells, 10^3 target cells, 4 hours. The class given is cell-based. As for the experimental part: The above-selected anti-CAPRIN-1 monoclonal antibodies #1 to #11 were evaluated for their cytotoxic activities against cancer cells (ADCC activity). Hybridomas producing the monoclonal antibodies #1 to #11 were each cultured using hybridoma SFM medium (Invitrogen). The thus obtained supernatant was purified using Hitrap ProteinA Sepharose FF (GE HealthCare), replaced with PBS(−), and then filtered through 0.22 μm filter (Millipore). The obtained filtrates were used as antibodies for assay. The human breast cancer cell line MDA-MB-157 (10^6 cells) was collected in a 50-ml centrifuge tube, to which 100 μCi chromium(Cr)-51 was then added, and incubated at 37° C. for 2 hours. Subsequently, the cells were washed 3 times with RPMI1640 medium containing 10% FBS, and then dispensed into each well of a 96-well V-bottom plate at 10^3 cells per well. The thus obtained cells are used as target cell. The above purified antibodies (1 μg each) were added to the cells. Separately, mouse lymphocytes separated from the mouse spleen were further added (2×10^5 cells) and then cultured under conditions of 37° C. and 5% CO2 for 4 hours. After culture, the amount of chromium(Cr)-51 released from cytotoxically impaired tumor cells in a culture supernatant was measured, so that the ADCC activity of each anti-CAPRIN-1 antibody against cancer cells was calculated. […] On the other hand, similar procedures were performed using the monoclonal antibodies (which were prepared in Example 2) reactive with the CAPRIN-1 protein itself, but not reactive with the surface of cancer cells, no cytotoxic activity was observed (see FIG. 1). […] Similarly, the anti-CAPRIN-1 antibodies were examined for ADCC activity against other human cancer cell lines including glioma cell lines (T98G and U373), lung cancer cell lines (A549 and QG56), renal cancer cell lines (Caki-1 and ACHN), a uterine cervix cancer cell line (SW756), a bladder cancer cell line (T24), an esophageal cancer cell line (KYSE180), gastric cancer cell lines (MNK28 and MNK45), a colorectal cancer cell line (SW480), a leukemia cell line (AML5), and a lymphoma cell line (Ramos).

The test system of data set [2] is MCF-7 human breast cancer cell line. As to the kind of experiment: In vivo combination therapy in tumor-bearing nude mice transplanted with MCF-7. The conditions noted are these: experimental section 2 (anti-CAPRIN-1 antibody = #9, 5 mg/kg i.p.), day 26, mouse PBMC given to all groups. As for the experimental part:
IgG2b (R&D systems, catalog No. MAB11291)) were administered in combination, a group to which an antitumor agent and anti-CAPRIN-1 monoclonal antibody were administered in combination, and a group to which control (PBS(−) was administered. In addition, mouse PBMC was administered to all the administration groups. […] PBMC separated from Balb/c mouse spleen was intravenously administered to each mouse at 1×10^7 cells/0.2 mL (RPMI1640) on days 0, 8, and 15 after the start of the experiment. […] PBMC separated from Balb/c mouse spleen was intravenously administered to each mouse at 1×10^7 cells/0.2 mL (RPMI1640) on days 0, 8, and 15 after the start of the experiment. Paclitaxel was intraperitoneally administered to each of 5 tumor-bearing mice at 15 mg/kg/shot on days 0 and 3 after the start of the experiment. PBMC separated from Balb/c mouse spleen was intravenously administered to each mouse at 1×10^7 cells/0.2 mL (RPMI1640) on days 0, 8, and 15 after the start of the experiment. Docetaxel was intraperitoneally administered to each of 5 tumor-bearing mice at 10 mg/kg/shot on days 0 and 3 after the start of the experiment. PBMC separated from Balb/c mouse spleen was intravenously administered to each mouse at 1×10^7 cells/0.2 mL (RPMI1640) on days 0, 8, and 15 after the start of the experiment. […]

B1: monoclonal antibody #9: mouse anti-CAPRIN-1 monoclonal antibody; heavy chain variable region SEQ ID NO: 103, light chain variable region SEQ ID NO: 107 (antibody, listed as Mus musculus, V domains shown)
VH: PRASLGVSETLLCTSGFTFTDYYMSWVRQPPGKALEWLGFIRNKANGYTTEYSASVKGRFTISRDNSQSILYLQMNTLRAEDSATYYCARANWAFDYWGQGTTVTVSSK
VL: SGDRVSLSCRASQSISNYLHWYQQKSHESPRLLIKYASQSISGIPSRFSGSGSGTDFTLSINSVETEDFGMYFCQQSNSWPYTFGGGTKLEIKQ
For B1, the “ADCC activity (cytotoxic activity) against MDA-MB-157” value in data set [1] was 32.4%. The “tumor volume relative to PBS(−) control group designated at 100%” value in data set [2] is recorded as “about 45%”.
